Test results reported in article PMC4887326, “Structural insights into the regulatory mechanism of the Pseudomonas aeruginosa YfiBNR system” (Protein & Cell, 2016).
Where a chain is given by its changes, count along the chain named. Names may count otherwise.

B1: YfiR (residues 35–190), co-expressed with YfiB (domain or fragment, P. aeruginosa, UniProt Q9I4L4 35-190, looked up)
chain: DDARTSIEQRSNAVSQVLLGIFSYVRWPKEPAVLQLCVVGPTEYADGLLRGMVQANGRRVHAERRAVDNPDLGTLCNVIYLGVVDERERQQVFRSLAGHPVLSISERGTECSVGSMFCLNVGGPRITFEANLDSIARSGVRVHPSVLKLARRQATP
notes: YfiR, P. aeruginosa, residues 35-190, lacking the signal peptide; ORF1 of pETDuet-1 with N-terminal His6 and a TEV cleavage site; Dimer in the 2:2 complex; only the Cys145-Cys152 disulfide is well formed there; not shown: His6, N-terminal, kept
B2: YfiR (residues 35–190), purified alone (domain or fragment, P. aeruginosa, UniProt Q9I4L4 35-190, looked up)
chain: B1 chain
notes: YfiR, P. aeruginosa, residues 35-190, lacking the predicted N-terminal periplasmic localization signal peptide; also called native YfiR; not shown: His6, N-terminal, cleaved
B3: YfiB (residues 34–168), wild type (domain or fragment)
chain: GLSAEQIAVLQEQGFELRDEGWEFGMSSKVLFGNNLDRLNPDSRNTLTKIARALLAVDIDKVRLEGHTDNYGDEGYNQKLSERRAESVAAVFREAGMPAANIEVRGLGMSKPVADNKTRAGRSENRRVAIIVPAE
notes: YfiB, P. aeruginosa, residues 34-168, lacking the signal peptide (residues 1-26) and periplasmic residues 27-33; ORF1 of pETDuet-1 with N-terminal His6 and a TEV cleavage site; no cleavage of the tag is told for YfiB; Monomer and dimer in solution (AUC); also called wild-type YfiB; apo YfiB
B4: YfiB^L43P (residues 34–168), co-expressed with YfiR (domain or fragment)
chain: B3 chain with L10P
notes: YfiB, P. aeruginosa, residues 34-168, with L43P; residues 44-168 are visible in the complex structure; Two copies in the 2:2 heterotetramer, separated from each other

Tests used:
[1] = biological target: the molecule itself; assay: crystal structure; YfiB^L43P-YfiR complex, space group P1, 1.78 Å, 2:2 heterotetramer in the asymmetric unit; 0.2 mol/L ammonium sulfate, 0.1 mol/L Tris-HCl pH 8.0, 12% PEG 8000, 293 K
[2] = biological target: the molecule itself; assay: crystal structure; VB6-bound (soaked, 2.4 Å) and Trp-bound (co-crystallised, 2.5 Å) YfiR, space group P4_3 2_1 2, a dimer in the asymmetric unit
[3] = biological target: the molecule itself; assay: AUC; sedimentation velocity, 25°C, samples at OD280 of 0.7 in 20 mmol/L Tris pH 8.0, 200 mmol/L NaCl, 60,000 rpm; dimer to monomers
[4] = biological target: B1; assay: crystal structure; YfiB^L43P-YfiR complex, space group P1, 1.78 Å, 2:2 heterotetramer in the asymmetric unit; 0.2 mol/L ammonium sulfate, 0.1 mol/L Tris-HCl pH 8.0, 12% PEG 8000, 293 K; conditions: both partners purified

B1
binding result [1]: binds

B2
binding result [2]: binds

B3
stoichiometry N [3]: 2

B4
stoichiometry N [4]: 1 YfiB per YfiR (printed as 2:2)
